# Reference: US7217525 (Johns Hopkins, dated 2007)
# T1: Narp (recombinant, expressed in transfected HEK-293 cells) (Rattus norvegicus (Rat), UniProt P97738 15-432)
# T1 sequence: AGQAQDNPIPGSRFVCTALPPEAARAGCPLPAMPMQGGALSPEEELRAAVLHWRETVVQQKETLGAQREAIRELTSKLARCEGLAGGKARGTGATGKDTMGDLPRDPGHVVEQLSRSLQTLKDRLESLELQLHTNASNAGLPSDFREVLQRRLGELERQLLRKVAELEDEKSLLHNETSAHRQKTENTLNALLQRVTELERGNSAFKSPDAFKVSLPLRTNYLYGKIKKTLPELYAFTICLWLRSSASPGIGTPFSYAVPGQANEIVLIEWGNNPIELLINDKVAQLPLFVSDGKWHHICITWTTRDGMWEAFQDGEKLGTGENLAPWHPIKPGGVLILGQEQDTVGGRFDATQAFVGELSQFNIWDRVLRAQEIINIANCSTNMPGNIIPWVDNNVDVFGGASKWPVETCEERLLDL
# B1: C-terminal myc-tagged version of Narp (designated myc-Narp) (ligand, not shown: small tags and cut ends)
# chain: T1 sequence
# Molecular target: T1, Narp (recombinant, expressed in …)
# Experiment: cell-based or functional assay
binder,measurement,value
B1,increase in intercellular myc-Narp*GluR1 co-clusters when untagged Narp is co-expressed with GluR1 in the apposing 293 cell,2 fold
